# According to PMC549569:
# Biological target: αCP1-KH3 (third KH domain of poly(C)-binding protein 1, PCBP1/hnRNP E1) (UniProt Q15365 279-356)
# Assay: SPR
# Sequence of αCP1-KH3 (third KH domain of poly(C)-binding protein 1, PCBP1/hnRNP E1) (Q15365 279-356): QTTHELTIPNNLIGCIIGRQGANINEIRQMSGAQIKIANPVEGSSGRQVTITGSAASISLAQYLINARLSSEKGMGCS
binder,measurement,value
CUCUCCUUUCUUUUUCUUCUUCCCUCCCUA (ssRNA) [AR mRNA 3'-UTR 30 nt UC-rich RNA (nt 3296-3325)],Kd,4.37 µM
